Assay results as given in article PMC7247576.

Tests used:
Assay in all cases: EMSA
Conditions in all cases: tetrahydrofuran abasic residue (F); EMSA: 50 mM Tris-HCl pH 8.0, 100 mM NaCl, 1 mM DTT, 50 nM FAM-AP-DNA, 4 °C, 30 min; 5% native PAG. Fluorescence: 50 mM HEPES pH 8.0, 100 mM NaCl, 4 mM DTT …
APE1NΔ61 (Homo sapiens) = tested on: APE1NΔ61 (Homo sapiens)
APE1NΔ35 (Homo sapiens) = tested on: APE1NΔ35 (Homo sapiens)
[1] = tested on: APE1 (full-length) (Homo sapiens)

AP-DNA (32-mer duplex with synthetic abasic site)
K half (APE1NΔ61 (Homo sapiens)): 210 nM
K half (APE1NΔ35 (Homo sapiens)): 200 nM
K half [1]: 120 nM
